In US20240009137A1, “ORAL THERAPEUTIC DELIVERY” (ROYAL MELBOURNE INSTITUTE OF TECHNOLOGY, priority 2020, published 2024):
Where “and” joins values, the source holds several entries; their conditions need not be identical. Identical values can stand only once.

How the values were obtained:
[1] = target: T1, chymotrypsin (Bos taurus, UniProt P00766); test: Enzymatic degradation of insulin by chymotrypsin followed by synchrotron CD (Dichroweb); type: in vitro ADME
T1 construct: purchased Sigma Aldrich (Australia)
Description: SR-CD measurements were conducted in the 170-350 nm region using the CD beamline of the synchrotron radiation source ASTRID2 at ISA, Centre for Storage Ring Facilities at Aarhus University (Denmark). Suprasil Quartz cells (Hellma GmbH & Co., Germany) of nominal 0.1 mm path length (actual calibrated path lengths=102.3 and […]), requiring an approximately 30 μl sample volume, were used for measurements at 37° C. in a temperature-regulated sample holder. […] The sample measurements were obtained at 1 nm increments in wavelength, 1 sec averaging time and 1 scan for each sample. Data were mildly smoothed with a 5-point moving mean in Matlab. The online service DichroWeb was used for secondary structure content analysis of the CD spectra using the CONTIN routine and the SP175 reference set.
Chymotrypsin, which is typically found in the small intestine, was utilized as a model enzyme.

[2] = previously provided in the literature; cited from earlier work
[3] = Fluorescence recovery after photobleaching (FRAP), diffusion coefficient; type: physicochemical
Description: FRAP was performed on a Nikon confocal microscope. […] A bleaching and background region of interest (ROI) was used to selectively photobleach an area of the cubic phase and the fluorescence recovery curve was recorded with time. The excitation/emission wavelengths used were 553/627 nm for the octadecyl rhodamine B chloride. […] […] The open source Matlab code frap_analysis_2p5 was used to determine diffusion coefficients μ from FRAP data.

[4] = Release of insulin from bulk cubic phase (A280 of supernatant; Ritger-Peppas and Higuchi fits); type: physicochemical
Description: This mixture was then injected into a 1.5 mL Eppendorf tube and centrifuged at 1200 RPM for 1 min to achieve a flat surface. The height of this surface was measured to determine the diameter for subsequent surface area calculations. 150 μl of water was added on top of the cubic phase and immediately removed for T=0 time point. 150 μl of supernatant fluid was removed every 30 min over a 12 hour period for analysis and replaced with a further […] of water. A final reading was taken at 22 hour.
Mt, M0, k and n are the released quantity at time t, initial quantity encapsulated, fitting coefficient and fitting exponent, respectively. This allows for the coupling of multiple release mechanisms (e.g., diffusion-controlled, zero-order) where the diffusional exponent n, is indicative of the release mechanism and geometry of the interface and the fitting coefficient k reflects characteristics of both the matrix and the solute.
where Q, C0 and D are the released concentration per unit area, initial concentration per unit volume and the diffusion coefficient, respectively. Diffusion control dictates that the release profile against √t should be linear. […] The determined parameters were compared to those found during FRAP analysis (DFRAP).

[5] = insulin in water 0.2 mg/ml, chymotrypsin 0.02 mg/ml, time 0 min
[6] = insulin in water 0.2 mg/ml, chymotrypsin 0.02 mg/ml, time 2 min
[7] = insulin in water 0.2 mg/ml, chymotrypsin 0.02 mg/ml, time 12 min

In the case of “Insulin: human recombinant insulin (Sigma Aldrich); FITC labelled insulin used for FRAP; free or encapsulated in MO or PT cubic phase”, the “far UV CD spectrum, secondary structure” value ([1]; insulin 0.2 mg/ml encapsulated in PT cubic phase, 30 min after addition of chymotrypsin) is reported as “still largely a-helical”, the “far UV CD spectrum, secondary structure” value ([1]; insulin 0.2 mg/ml in water, 30 min after addition of chymotrypsin) is reported as “largely unordered” and the “near-UV CD minimum at 270 nm” value ([1]; insulin 0.5 mg/ml in MO bulk cubic phase, 132 min after addition of chymotrypsin 0.05 mg/ml) is reported as “may still be observed”. For the same substance, the “far UV CD spectrum, secondary structure” value ([1]; insulin encapsulated in PT cubic phase, 2 hours after addition of chymotrypsin) was “retention of a-helical structures”, the “duration of protection against enzymatic degradation after addition of chymotrypsin” value ([1]; insulin in lipid nanocarrier in the form of a mesophase) was “at least 2 hours” and the “time by which the near-UV CD minimum at 270 nm has essentially disappeared” value ([1]; insulin in solution 0.5 mg/ml, chymotrypsin 0.05 mg/ml) was at most 9 min. For the same substance, the “Unordered(%)” value [1, 5] was 8%, the “β-sheet(%)” value [1, 5] was 0% and the “β-turns(%)” value [1, 5] was 3%. For the same substance, the “β-sheet(%)” value [1, 6] was 0%, the “β-turns(%)” value [1, 6] was 9% and the “β-sheet(%)” value ([1]; insulin in water 0.2 mg/ml, chymotrypsin 0.02 mg/ml, time 6 min) was 2%. The “Unordered(%)” value [1, 7] was 41%, the “α-helix(%)” value [1, 7] was 41% and 41.2% and the “time to complete degradation” value ([1]; insulin in water, no protective matrix, chymotrypsin added) was “less than 35 min”. The “diffusion coefficient in water” value [2] was 1.5 ×10^−6 cm^2 s^−1, the “Diffusion Coefficient” value ([3]; MO QII^D phase at the water interface (DFRAP)) was 2.89 ×10^−6 cm^2 s^−1 and the “Diffusion Coefficient” value ([3]; PT QII^D phase at the water interface (DFRAP)) was 4.36 ×10^−6 cm^2 s^−1. For the same substance, the “Diffusion Coefficient” value ([3]; in MO QII^D bulk cubic phase (insulin: FITC labelled, 5 mg/ml)) was 2.29 ×10^−6 cm^2 s^−1, the “Diffusion Coefficient” value ([3]; in PT QII^D bulk cubic phase (insulin: FITC labelled, 5 mg/ml)) was 4.17 ×10^−6 cm^2 s^−1 and the “Diffusion Coefficient” value ([3]; in solution (free, FITC labelled insulin)) was 6.56 ×10^−6 cm^2 s^−1. For the same substance, the “Diffusion Coefficient” value ([3]; in solution (free, FITC labelled insulin), listed as insulin) was 6.6 ×10^−6 cm^2 s^−1, the “diffusion coefficient higher at the interface compared to in the bulk” value ([3]; stated for both lipids (MO and PT)) was “approximately 15%” and the “insulin released over the first two hours” value ([4]; from MO bulk cubic phase) was “approximately 15%”. For the same substance, the “release over a 24 h period” value ([4]; from MO bulk cubic phase) was “approximately 50%”, the “insulin released over the first two hours” value ([4]; from PT bulk cubic phase) was “approximately 25%” and the “release over a 24 h period” value ([4]; from PT bulk cubic phase) was 60%. For the same substance, the “insulin released over 2-hour time period” value ([4]; from the cubic phase (lipid not specified)) was “approximately 20%”, the “k, fitting coefficient (Ritger-Peppas model)” value ([4]; insulin release from MO) was 0.88 ± 0.06 and the “time to 20% release” value ([4]; release from MO bulk cubic phase into aqueous sink) was about 4 h. The “time to 20% release” value ([4]; release from PT bulk cubic phase into aqueous sink) was about 2 h.
